The text below walks through data of patent CN115960228A (UNIV XUZHOU MEDICAL, dated 2023).

The assay deals with T1, CD19 protein on the cell surface (细胞表面的CD19蛋白) (human, UniProt P15391 20-556).
T1 construct: whole, on cells; also called 人CD19
T1 sequence (looked up): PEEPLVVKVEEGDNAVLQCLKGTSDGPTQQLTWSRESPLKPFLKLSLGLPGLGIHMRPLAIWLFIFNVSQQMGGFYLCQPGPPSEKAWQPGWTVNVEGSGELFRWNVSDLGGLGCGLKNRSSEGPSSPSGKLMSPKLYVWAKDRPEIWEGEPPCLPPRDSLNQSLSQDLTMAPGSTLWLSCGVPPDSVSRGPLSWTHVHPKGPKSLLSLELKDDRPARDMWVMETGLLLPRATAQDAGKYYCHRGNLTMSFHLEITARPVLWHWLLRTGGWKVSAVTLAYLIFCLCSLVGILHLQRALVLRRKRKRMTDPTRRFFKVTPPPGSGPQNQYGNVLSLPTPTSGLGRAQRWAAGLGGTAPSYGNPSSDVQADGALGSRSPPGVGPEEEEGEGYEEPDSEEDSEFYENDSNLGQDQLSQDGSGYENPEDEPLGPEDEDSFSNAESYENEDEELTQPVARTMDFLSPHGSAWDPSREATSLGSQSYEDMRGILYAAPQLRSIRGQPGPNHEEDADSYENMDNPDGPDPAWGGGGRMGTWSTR
Put plainly: flow cytometry on cells; antibody purified from cell supernatant or ascites, compared with hybridoma supernatant. In general terms: A flow cytometer gives signals particle by particle.

B1: CD19-6E1B8抗体 (anti-human CD19 monoclonal antibody, clone 6E1B8) (antibody, V domains shown)
VH: EVQLKESGPGLVAPSQSLSITCTVSGFSLTSHGVSWVRQPPGKGLEWLGVIWGDGRTSYHSALISRLSISKSDSKSQVFLKLNSLQTDDTATYYCAKKGAYYGSDYRYYAMDSWGQGTSVTVSS
VL: DIQLTQTPLSLPVSLGDQASISCRSSQSLVYSNGNTYLHWYLQKPGQSPKLLIYKASNRFSGVPDRFSGSGSGTDFTLKISRVEAEDLGVYFCSQSTHVPWTFGGGTKLEIKR
notes: It was purified on Protein G from ascites or from cell supernatant; also called CD19抗体; 抗CD19的单克隆抗体
For B1, the binding result is “binds”.
